Measurements published in patent US20100254995A1.

Experiments:
[1] = target: human TNFR1 (soluble recombinant protein) (human) (UniProt P19438); experiment: phage ELISA, plate coated with 1 nM TNFRI, anti-M13-HRP; phage pre-treated 1 h room temp with 1 mg/ml trypsin; phage input 1.13E+10
[2] = target: human TNFR1 (soluble recombinant protein) (human) (UniProt P19438); experiment: phage ELISA, plate coated with 1 nM TNFRI, anti-M13-HRP; phage pre-treated 1 h room temp with 10 ug/ml trypsin; phage input 1.13E+10
[3] = target: human TNFR1 (soluble recombinant protein) (human) (UniProt P19438); experiment: phage ELISA, plate coated with 1 nM TNFRI, anti-M13-HRP; phage pre-treated 1 h room temp with 100 ug/ml trypsin; phage input 1.13E+10

Sequence of human TNFR1 (soluble recombinant protein) (human) (P19438 41-201 limits assumed): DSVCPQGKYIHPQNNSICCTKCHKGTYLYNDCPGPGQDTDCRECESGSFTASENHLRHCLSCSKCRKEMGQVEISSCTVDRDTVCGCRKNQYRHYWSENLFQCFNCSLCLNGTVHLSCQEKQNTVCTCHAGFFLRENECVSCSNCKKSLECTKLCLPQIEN

DOM1h-131
phage ELISA signal (read-out not named) [1]: 0.183
phage ELISA signal (read-out not named) [2]: 0.86
phage ELISA signal (read-out not named) [3]: 0.284
